Source: paper PMC10579966, “The NADH recycling enzymes TsaC and TsaD regenerate reducing equivalents for Rieske oxygenase chemistry” (The Journal of Biological Chemistry, 2023)

Legend:
TsaC [1] = molecular target: T1, TsaC (Comamonas testosteroni, UniProt P94681, G149N); test: GC-MS turnover; format: biochemical; details: 5 mM NAD+, 10 μM enzyme, 30 °C, 2 h
T1 construct: gene tsaC1; N-terminal His6 tag with TEV site (residues -20 to -1, kept), codon-optimized, pET-28a(+)-TEV, E. coli C41(DE3); native residues 1-252; homotetramer
T1 sequence (P94681 whole entry G149N, the tested form may be a part): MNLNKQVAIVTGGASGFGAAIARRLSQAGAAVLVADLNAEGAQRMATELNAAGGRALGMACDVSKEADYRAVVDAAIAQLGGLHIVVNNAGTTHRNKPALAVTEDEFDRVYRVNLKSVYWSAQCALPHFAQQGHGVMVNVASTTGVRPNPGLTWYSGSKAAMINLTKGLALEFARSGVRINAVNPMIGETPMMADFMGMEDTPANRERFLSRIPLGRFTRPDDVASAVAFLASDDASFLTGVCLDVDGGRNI

TsaC [2] = molecular target: T2, TsaC (Comamonas testosteroni, UniProt P94681, T143Q/G149N); test: GC-MS turnover; format: biochemical; details: 5 mM NAD+, 10 μM enzyme, 30 °C, 2 h
T2 construct: gene tsaC1; N-terminal His6 tag with TEV site (residues -20 to -1, kept), codon-optimized, pET-28a(+)-TEV, E. coli C41(DE3); native residues 1-252; homotetramer
T2 sequence (P94681 whole entry T143Q/G149N, the tested form may be a part): as the sequence (P94681 whole entry G149N, the tested form may be a part) above, with T143Q counted along it

TsaM = molecular target: T3, TsaM (Comamonas testosteroni, UniProt P94679); test: LC-MS product formation and NADH consumption (A340); format: biochemical; details: with reductase VanB, Fe(II), 30 °C
T3 construct: gene tsaM1; pET-28a(+)-TEV-tsaM, E. coli C41(DE3), purified as TsaC; trimer
T3 sequence (P94679 1-347): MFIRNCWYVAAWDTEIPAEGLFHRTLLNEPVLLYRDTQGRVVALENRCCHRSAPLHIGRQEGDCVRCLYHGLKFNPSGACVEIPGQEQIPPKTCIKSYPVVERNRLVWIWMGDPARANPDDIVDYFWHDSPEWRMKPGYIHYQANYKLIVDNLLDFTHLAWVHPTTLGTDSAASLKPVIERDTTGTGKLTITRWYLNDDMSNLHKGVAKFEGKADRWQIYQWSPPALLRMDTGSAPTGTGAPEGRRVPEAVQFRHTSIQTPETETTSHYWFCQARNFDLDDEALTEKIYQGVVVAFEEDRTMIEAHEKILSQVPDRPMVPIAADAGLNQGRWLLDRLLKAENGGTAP

TsaC [3] = molecular target: T4, TsaC (Comamonas testosteroni, UniProt P94681); test: differential scanning fluorimetry; format: binding; details: 10 μM enzyme; NADH alone
T4 construct: gene tsaC1; N-terminal His6 tag with TEV site (residues -20 to -1, kept), codon-optimized, pET-28a(+)-TEV, E. coli C41(DE3); native residues 1-252; homotetramer

[4] = molecular target: the molecule itself; test: SEC; gel filtration in the purification of TsaM, purified as described for TsaC; lysis buffer 50 mM Tris-HCl pH 7.2, 250 mM NaCl
[5] = molecular target: the molecule itself; test: crystal structure; hanging-drop vapor diffusion, 10 to 20 mg/ml protein with 2 mM NAD+, 0.2 M KCl, 20% PEG 3350, 10% glycerol, 293 K; two chains in the asymmetric unit, tetramer with two symmetry-related molecules; 2.18 A
[6] = substrate: O=Cc1ccc(C(=O)O)cc1; test: LC-MS steady-state kinetics; format: biochemical, Comamonas testosteroni; details: 2 mM NAD+, 30 °C, aldehyde hydrate proposed as the oxidized species
Text: (§1) LC-MS steady-state kinetics on TsaC

[7] = substrate: O=Cc1ccc(S(=O)(=O)O)cc1; test: LC-MS steady-state kinetics; format: biochemical, Comamonas testosteroni; details: 2 mM NAD+, 30 °C, aldehyde hydrate proposed as the oxidized species
Text: as §1

[8] = substrate: O=C(O)c1ccc(CO)cc1; test: LC-MS steady-state kinetics; format: biochemical, Comamonas testosteroni; details: 2 mM NAD+, 30 °C
Text: as §1

[9] = substrate: O=S(=O)(O)c1ccc(CO)cc1; test: LC-MS steady-state kinetics; format: biochemical, Comamonas testosteroni; details: 2 mM NAD+, 30 °C
Text: as §1

[10] = molecular target: the molecule itself; test: SEC-MALS; 15 ul of 90 uM protein, AdvanceBio 300A column, 50 mM Hepes pH 8.2, 200 mM NaCl, 5% glycerol, with either NAD+ or NADH, room temperature; about 0.3 uM at the apex of the largest peak
[11] = molecular target: the molecule itself; test: SEC; HiPrep 16/60 Sephacryl S200-HR, 50 mM Hepes pH 8.0, 200 mM NaCl, 5% glycerol
[12] = substrate: O=Cc1ccc(C(=O)O)cc1; test: LC-MS steady-state kinetics; format: biochemical, Comamonas testosteroni; details: 2 mM NAD+, 30 °C
Text: (§2) LC-MS steady-state kinetics on TsaD

[13] = substrate: O=Cc1ccc(S(=O)(=O)O)cc1; test: LC-MS steady-state kinetics; format: biochemical, Comamonas testosteroni; details: 2 mM NAD+, 30 °C
Text: as §2

Which GC-MS turnover (TsaC [1]) does the source give for `C[C@H](O)[C@@H](C)O` [meso-2,3-butanediol] here?
Its GC-MS turnover is “both the G149N and T143Q/G149N variants of TsaC show a significantly improved ability”.

What about the GC-MS turnover (TsaC [2]) of the same molecule?
Its GC-MS turnover is “T143Q/G149N variants of TsaC show a significantly improved ability to transform meso-2,3-butanediol into 3-hydroxy-2-butanone”.

With `Cc1ccc(C(=O)O)cc1` [4-methylbenzoate] as the molecule, how does the “LC-MS product formation and NADH consumption (A340)” value (TsaM) read?
Its value is “TsaM and VanB consume more 4-methylbenzenesulfonate than 4-methylbenzoate”.

With `NC(=O)C1=CN([C@@H]2O[C@H](COP(=O)(O)OP(=O)(O)OC[C@H]3O[C@@H](n4cnc5c(N)ncnc54)[C@H](O)[C@@H]3O)[C@@H](O)[C@H]2O)C=CC1` [NADH] as the molecule, how does the ΔTm (TsaC [3]) read?
Its ΔTm is 12.4 °C.

Which “LC-MS product formation and NADH consumption (A340)” value (TsaM) does the source give for `Cc1ccc(S(=O)(=O)O)cc1` [4-methylbenzenesulfonate] here?
Its value is “more NADH is consumed in assays that contain 4-methylbenzenesulfonate rather than 4-methylbenzoate”.

B1: TsaM (wild type), Rieske oxygenase of the TsaMBCD pathway (enzyme, Comamonas testosteroni, UniProt P94679 1-347, looked up)
chain: MFIRNCWYVAAWDTEIPAEGLFHRTLLNEPVLLYRDTQGRVVALENRCCHRSAPLHIGRQEGDCVRCLYHGLKFNPSGACVEIPGQEQIPPKTCIKSYPVVERNRLVWIWMGDPARANPDDIVDYFWHDSPEWRMKPGYIHYQANYKLIVDNLLDFTHLAWVHPTTLGTDSAASLKPVIERDTTGTGKLTITRWYLNDDMSNLHKGVAKFEGKADRWQIYQWSPPALLRMDTGSAPTGTGAPEGRRVPEAVQFRHTSIQTPETETTSHYWFCQARNFDLDDEALTEKIYQGVVVAFEEDRTMIEAHEKILSQVPDRPMVPIAADAGLNQGRWLLDRLLKAENGGTAP
notes: TsaM, Comamonas testosteroni, in pET-28a(+)-TEV-tsaM; also called wild-type TsaM; source: E. coli C41(DE3), purified as described for TsaC (gel filtration)
For B1, which “stoichiometry N” value [4] is on record?
Its value is 3.

B2: TsaC (wild type), short-chain dehydrogenase/reductase of the TsaMBCD pathway (enzyme, Comamonas testosteroni, UniProt P94681 1-252, looked up)
chain: MNLNKQVAIVTGGASGFGAAIARRLSQAGAAVLVADLNAEGAQRMATELNAAGGRALGMACDVSKEADYRAVVDAAIAQLGGLHIVVNNAGTTHRNKPALAVTEDEFDRVYRVNLKSVYWSAQCALPHFAQQGHGVMVNVASTTGVRPGPGLTWYSGSKAAMINLTKGLALEFARSGVRINAVNPMIGETPMMADFMGMEDTPANRERFLSRIPLGRFTRPDDVASAVAFLASDDASFLTGVCLDVDGGRNI
notes: TsaC, Comamonas testosteroni, codon-optimized synthetic gene in pET-28a(+)-TEV; native residues 1 (initial methionine) to 252 (the four C-terminal residues are 249 to 252); the His6 tag and TEV protease cleavage site are numbered -20 to -1; The tag and TEV site (residues -20 to -1) are present in the crystallised protein but disordered; no cleavage of the tag is described; also called wild-type …
Which results are given for B2?
stoichiometry N [5]: 4; Km [6]: 23 ± 4.7 µM; Vmax [6]: 13 µM/min; kcat [6]: 0.112 ± 0.00667 s⁻¹; kcat/Km [6]: 4800 ± 1000 M⁻¹ s⁻¹; Km [7]: 20 ± 3.5 µM; Vmax [7]: 15 µM/min; kcat [7]: 0.125 ± 0.00583 s⁻¹; kcat/Km [7]: 6200 ± 1100 M⁻¹ s⁻¹; Km [8]: 18 ± 2.8 µM; Vmax [8]: 12 µM/min; kcat [8]: 0.0983 ± 0.00367 s⁻¹; kcat/Km [8]: 5400 ± 870 M⁻¹ s⁻¹; Km [9]: 13 ± 2.0 µM; Vmax [9]: 12 µM/min; kcat [9]: 0.1 ± 0.004 s⁻¹; kcat/Km [9]: 7900 ± 1300 M⁻¹ s⁻¹

B3: Y155F TsaC variant (enzyme, Comamonas testosteroni, UniProt P94681 1-252, looked up)
chain: MNLNKQVAIVTGGASGFGAAIARRLSQAGAAVLVADLNAEGAQRMATELNAAGGRALGMACDVSKEADYRAVVDAAIAQLGGLHIVVNNAGTTHRNKPALAVTEDEFDRVYRVNLKSVYWSAQCALPHFAQQGHGVMVNVASTTGVRPGPGLTWFSGSKAAMINLTKGLALEFARSGVRINAVNPMIGETPMMADFMGMEDTPANRERFLSRIPLGRFTRPDDVASAVAFLASDDASFLTGVCLDVDGGRNI
notes: TsaC, Comamonas testosteroni, made by site-directed mutagenesis of pET-28a(+)-TEV-tsaC; same limits as the wild type (native residues 1 to 252); Expressed and purified as the wild type; source: E. coli C41(DE3), purified (HisTrap HP, Sephacryl S200-HR gel filtration)
With B3 as the molecule, how does the “stoichiometry N” value [10] read?
Its value is 4.

B4: TsaD (wild type), aldehyde dehydrogenase of the TsaMBCD pathway (enzyme, Comamonas testosteroni, UniProt P94682 1-476, looked up)
chain: MSTVLYRCPELLIGGEWRPGRHEQRLVVRNPATGEPLDELRLASADDLQLALQTTQQAFEHWRQVPAHERCARLERGVARLRENTERIAHLLTLEQGKTLAEARMECAMAADLIKWYAEEARRVYGRVIPARLPNSRMEVFKFPVGPVAAFSPWNFPLVLSARKLGGAIAAGCSIVLKAAEETPASVAAMVDCLNQELPPGVVQLLYGVPAEVSQALIASPVVRKVTFTGSVPVGRHLAELSARHLKRITLELGGHAPVIVCGDADIARTVNLMVQHKFRNAGQACLAPTRFFVDRRIYGDFVDAFGATQALRVGAGMAAETQMGPVASARRQAAVQDLIARSVAAGARPVASAVPEAGYFVAPTLLADVPLDAPVMSEEPFGPVACAVPFDSLDQAIAQANHNPYGLAGYLFTDSAKAILAVSERLEVGSLAVNGMGVSVPEAPFGGVKDSGYGSESGTEGMEAFLDTKFMHYVA
notes: TsaD, Comamonas testosteroni, codon-optimized synthetic gene in pMCSG9; Expression followed the TsaC protocol with ampicillin; also called untagged TsaD; source: E. coli, purified (MBPTrap, TEV cleavage, HisTrap HP flow-through, Sephacryl S200-HR gel filtration); not shown: MBP, N-terminal, cleaved; His6, N-terminal, cleaved
How did the “stoichiometry N” value [11] turn out when B4 was run?
The value was 2.

What about the Km [12] of the same molecule?
The Km was 21 ± 6.9 µM.

What about the Vmax [12] of the same molecule?
Its Vmax is 13 µM/min.

What about the kcat [12] of the same molecule?
Its kcat is 0.105 ± 0.00983 s⁻¹.

What about the kcat/Km [12] of the same molecule?
Its kcat/Km is 5000 ± 1700 M⁻¹ s⁻¹.

What about the Km [13] of the same molecule?
Its Km is 16 ± 2.5 µM.

What about the Vmax [13] of the same molecule?
Its Vmax is 13 µM/min.

And the kcat [13]?
The kcat was 0.112 ± 0.00517 s⁻¹.

What about the kcat/Km [13] of the same molecule?
The kcat/Km was 6900 ± 1100 M⁻¹ s⁻¹.
